Reference: PMC9482650, “Quantitative fragmentomics allow affinity mapping of interactomes” (Nature Communications, 2022)

T1: MPP6, Q9NZW5
T1 sequence (Q9NZW5 125-219, limits assumed, looked up): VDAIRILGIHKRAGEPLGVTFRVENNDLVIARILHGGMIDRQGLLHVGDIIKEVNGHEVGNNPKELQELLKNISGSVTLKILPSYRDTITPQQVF

T2: SIPA1L2, Q9P2F8
T2 sequence (Q9P2F8 945-1036, limits assumed, looked up): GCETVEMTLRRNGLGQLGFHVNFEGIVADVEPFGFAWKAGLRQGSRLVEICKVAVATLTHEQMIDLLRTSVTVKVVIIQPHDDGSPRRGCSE

T3: SNTA1, Q13424
T3 sequence (Q13424 82-180, limits assumed, looked up): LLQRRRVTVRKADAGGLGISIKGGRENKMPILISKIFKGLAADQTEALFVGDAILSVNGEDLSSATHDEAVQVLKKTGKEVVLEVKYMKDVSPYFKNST

T4: NHERF3_4, Q5T2W1
T4 sequence (Q5T2W1 373-468, limits assumed, looked up): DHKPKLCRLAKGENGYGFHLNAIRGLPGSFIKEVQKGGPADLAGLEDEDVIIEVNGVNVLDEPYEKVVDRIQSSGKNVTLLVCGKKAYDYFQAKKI

T5: MPDZ_5, O75970
T5 sequence (O75970 695-796, limits assumed, looked up): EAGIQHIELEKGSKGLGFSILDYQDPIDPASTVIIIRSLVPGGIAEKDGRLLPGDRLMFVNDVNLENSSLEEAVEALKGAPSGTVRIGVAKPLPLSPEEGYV

T6: DLG3_1, Q92796
T6 sequence (Q92796 125-227, limits assumed, looked up): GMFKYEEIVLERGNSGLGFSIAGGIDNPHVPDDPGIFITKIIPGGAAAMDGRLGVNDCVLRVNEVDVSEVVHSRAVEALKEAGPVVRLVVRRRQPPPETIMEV

T7: PDZD2_2, O15018
T7 sequence (O15018 329-429, limits assumed, looked up): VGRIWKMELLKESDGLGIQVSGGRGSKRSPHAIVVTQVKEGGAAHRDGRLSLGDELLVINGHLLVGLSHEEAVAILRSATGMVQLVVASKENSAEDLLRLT

T8: DFNB31_3, Q9P202
T8 sequence (Q9P202 811-907, limits assumed, looked up): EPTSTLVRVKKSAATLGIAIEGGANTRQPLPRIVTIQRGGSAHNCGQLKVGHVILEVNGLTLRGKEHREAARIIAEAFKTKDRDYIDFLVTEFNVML

T9: NHERF3_1, Q5T2W1
T9 sequence (Q5T2W1 4-100, limits assumed, looked up): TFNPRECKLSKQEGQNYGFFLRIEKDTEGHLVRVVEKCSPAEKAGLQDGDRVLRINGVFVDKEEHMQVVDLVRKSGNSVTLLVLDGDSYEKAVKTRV

T10: PCLO, Q9Y6V0
T10 sequence (Q9Y6V0 4491-4600, limits assumed, looked up): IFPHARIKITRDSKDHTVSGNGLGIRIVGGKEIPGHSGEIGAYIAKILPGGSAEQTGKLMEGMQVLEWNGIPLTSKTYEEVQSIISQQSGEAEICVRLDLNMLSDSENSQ

T11: LIN7A, O14910
T11 sequence (O14910 103-200, limits assumed, looked up): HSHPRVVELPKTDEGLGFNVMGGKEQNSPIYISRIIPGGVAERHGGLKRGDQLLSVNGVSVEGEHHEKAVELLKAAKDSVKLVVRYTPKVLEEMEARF


What follows are binders tested against GRIP2_5, Q9C0E4 (assay: holdup assay). Conditions: plain residues with an end cap or a label only (N-terminal biotin on a linker: ado-ado).
Chain of GRIP2_5, Q9C0E4 (Q9C0E4 544-642): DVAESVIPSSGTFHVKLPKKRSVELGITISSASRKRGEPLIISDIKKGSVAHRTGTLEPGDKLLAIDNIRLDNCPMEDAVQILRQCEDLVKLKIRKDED
Set-up: key: below the threshold = too weak to quantify, mostly under pKd 3.1 to 4
For GDSSRKEYFI [GYPC, P04921], the pKd was “below the threshold”.

What follows are binders tested against DLG1_3, Q12959 (assay: holdup assay). Conditions: plain residues with an end cap or a label only (N-terminal biotin on a linker: ado-ado).
Set-up: key: below the threshold = too weak to quantify, mostly under pKd 3.1 to 4
With GDSSRKEYFI [GYPC, P04921] the pKd was “below the threshold”.

The binders below were run against T1, MPP6, Q9NZW5 (assay: holdup assay). Conditions: plain residues with an end cap or a label only (N-terminal biotin on a linker: ado-ado).
Set-up: key: below the threshold = too weak to quantify, mostly under pKd 3.1 to 4
GDSSRKEYFI [GYPC, P04921] showed a pKd of 4.7.

The binders below were run against T2, SIPA1L2, Q9P2F8 (assay: holdup assay). Conditions: plain residues with an end cap or a label only (N-terminal biotin on a linker: ado-ado).
Set-up: key: below the threshold = too weak to quantify, mostly under pKd 3.1 to 4
For GDSSRKEYFI [GYPC, P04921], the pKd was “below the threshold”.

What follows are binders tested against GRIP2_6, Q9C0E4 (assay: holdup assay). Conditions: plain residues with an end cap or a label only (N-terminal biotin on a linker: ado-ado).
Chain of GRIP2_6, Q9C0E4 (Q9C0E4 648-740): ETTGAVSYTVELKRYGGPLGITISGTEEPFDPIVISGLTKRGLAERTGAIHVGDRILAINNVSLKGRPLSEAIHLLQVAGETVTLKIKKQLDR
Set-up: key: below the threshold = too weak to quantify, mostly under pKd 3.1 to 4
In the case of GDSSRKEYFI [GYPC, P04921], the pKd is reported as 4.67.

These binders were tested against FRMPD3, Q5JV73 (assay: holdup assay). Conditions: plain residues with an end cap or a label only (N-terminal biotin on a linker: ado-ado).
Chain of FRMPD3, Q5JV73 (Q5JV73 12-100): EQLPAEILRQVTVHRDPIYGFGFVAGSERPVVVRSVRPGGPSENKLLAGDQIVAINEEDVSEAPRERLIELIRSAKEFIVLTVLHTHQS
Set-up: key: below the threshold = too weak to quantify, mostly under pKd 3.1 to 4
GDSSRKEYFI [GYPC, P04921] was tested, and the pKd was “below the threshold”.

The binders below were run against T3, SNTA1, Q13424 (assay: holdup assay). Conditions: plain residues with an end cap or a label only (N-terminal biotin on a linker: ado-ado).
Set-up: key: below the threshold = too weak to quantify, mostly under pKd 3.1 to 4
With GDSSRKEYFI [GYPC, P04921] the pKd was “below the threshold”.

What follows are binders tested against T4, NHERF3_4, Q5T2W1 (assay: holdup assay). Conditions: plain residues with an end cap or a label only (N-terminal biotin on a linker: ado-ado).
Set-up: key: below the threshold = too weak to quantify, mostly under pKd 3.1 to 4
In the case of GDSSRKEYFI [GYPC, P04921], the pKd is reported as “below the threshold”.

The binders below were run against T5, MPDZ_5, O75970 (assay: holdup assay). Conditions: plain residues with an end cap or a label only (N-terminal biotin on a linker: ado-ado).
Set-up: key: below the threshold = too weak to quantify, mostly under pKd 3.1 to 4
In the case of GDSSRKEYFI [GYPC, P04921], the pKd is reported as 4.66.

These binders were tested against CASK, O14936 (assay: holdup assay). Conditions: plain residues with an end cap or a label only (N-terminal biotin on a linker: ado-ado).
Chain of CASK, O14936 (O14936 487-570): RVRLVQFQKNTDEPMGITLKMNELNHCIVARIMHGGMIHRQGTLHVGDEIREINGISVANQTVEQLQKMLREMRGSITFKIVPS
Set-up: key: below the threshold = too weak to quantify, mostly under pKd 3.1 to 4
For GDSSRKEYFI [GYPC, P04921], the pKd was “below the threshold”.

The binders below were run against GRASP, Q7Z6J2 (assay: holdup assay). Conditions: plain residues with an end cap or a label only (N-terminal biotin on a linker: ado-ado).
Chain of GRASP, Q7Z6J2 (Q7Z6J2 96-193): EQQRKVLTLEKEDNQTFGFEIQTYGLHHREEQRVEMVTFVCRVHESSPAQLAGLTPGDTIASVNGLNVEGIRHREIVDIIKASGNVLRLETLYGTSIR
Set-up: key: below the threshold = too weak to quantify, mostly under pKd 3.1 to 4
With GDSSRKEYFI [GYPC, P04921] the pKd was “below the threshold”.

The binders below were run against T6, DLG3_1, Q92796 (assay: holdup assay). Conditions: plain residues with an end cap or a label only (N-terminal biotin on a linker: ado-ado).
Set-up: key: below the threshold = too weak to quantify, mostly under pKd 3.1 to 4
For GDSSRKEYFI [GYPC, P04921], the pKd was “below the threshold”.

What follows are binders tested against DLG1_2, Q12959 (assay: holdup assay). Conditions: plain residues with an end cap or a label only (N-terminal biotin on a linker: ado-ado).
Set-up: key: below the threshold = too weak to quantify, mostly under pKd 3.1 to 4
GDSSRKEYFI [GYPC, P04921] showed a pKd of 3.95.

What follows are binders tested against HTRA2, O43464 (assay: holdup assay). Conditions: plain residues with an end cap or a label only (N-terminal biotin on a linker: ado-ado).
Chain of HTRA2, O43464 (O43464 355-458): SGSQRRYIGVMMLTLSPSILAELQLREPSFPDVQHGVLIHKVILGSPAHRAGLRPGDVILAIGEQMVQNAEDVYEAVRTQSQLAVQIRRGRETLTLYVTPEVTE
Set-up: key: below the threshold = too weak to quantify, mostly under pKd 3.1 to 4
Binder GDSSRKEYFI [GYPC, P04921] has a pKd of 4.1.

These binders were tested against GRID2IP_2, A4D2P6 (assay: holdup assay). Conditions: plain residues with an end cap or a label only (N-terminal biotin on a linker: ado-ado).
Chain of GRID2IP_2, A4D2P6 (A4D2P6 272-370): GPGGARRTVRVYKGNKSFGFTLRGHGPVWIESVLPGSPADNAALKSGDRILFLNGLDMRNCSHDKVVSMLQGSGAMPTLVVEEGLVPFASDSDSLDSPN
Set-up: key: below the threshold = too weak to quantify, mostly under pKd 3.1 to 4
With GDSSRKEYFI [GYPC, P04921] the pKd was “below the threshold”.

What follows are binders tested against T7, PDZD2_2, O15018 (assay: holdup assay). Conditions: plain residues with an end cap or a label only (N-terminal biotin on a linker: ado-ado).
Set-up: key: below the threshold = too weak to quantify, mostly under pKd 3.1 to 4
GDSSRKEYFI [GYPC, P04921] was tested, and the pKd was 4.28.

Each binder was assayed against NHERF2_2, Q15599 (assay: holdup assay). Conditions: plain residues with an end cap or a label only (N-terminal biotin on a linker: ado-ado).
Chain of NHERF2_2, Q15599 (Q15599 142-238): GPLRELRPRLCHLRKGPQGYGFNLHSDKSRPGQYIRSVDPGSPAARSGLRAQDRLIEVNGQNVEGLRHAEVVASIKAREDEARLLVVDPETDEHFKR
Set-up: key: below the threshold = too weak to quantify, mostly under pKd 3.1 to 4
With GDSSRKEYFI [GYPC, P04921] the pKd was “below the threshold”.

These binders were tested against MAGI2_2, Q86UL8 (assay: holdup assay). Conditions: plain residues with an end cap or a label only (N-terminal biotin on a linker: ado-ado).
Chain of MAGI2_2, Q86UL8 (Q86UL8 410-522): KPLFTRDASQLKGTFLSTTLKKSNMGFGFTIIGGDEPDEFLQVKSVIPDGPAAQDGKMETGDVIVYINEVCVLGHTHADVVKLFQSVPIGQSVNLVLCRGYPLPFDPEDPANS
Set-up: key: below the threshold = too weak to quantify, mostly under pKd 3.1 to 4
Binder GDSSRKEYFI [GYPC, P04921] has a pKd of 3.6.

Each binder was assayed against MAST1, Q9Y2H9 (assay: holdup assay). Conditions: plain residues with an end cap or a label only (N-terminal biotin on a linker: ado-ado).
Chain of MAST1, Q9Y2H9 (Q9Y2H9 962-1065): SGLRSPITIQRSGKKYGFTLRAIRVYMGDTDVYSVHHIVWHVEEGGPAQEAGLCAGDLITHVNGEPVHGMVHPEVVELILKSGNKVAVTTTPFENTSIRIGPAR
Set-up: key: below the threshold = too weak to quantify, mostly under pKd 3.1 to 4
In the case of GDSSRKEYFI [GYPC, P04921], the pKd is reported as “below the threshold”.

These binders were tested against T8, DFNB31_3, Q9P202 (assay: holdup assay). Conditions: plain residues with an end cap or a label only (N-terminal biotin on a linker: ado-ado).
Set-up: key: below the threshold = too weak to quantify, mostly under pKd 3.1 to 4
For GDSSRKEYFI [GYPC, P04921], the pKd was 3.81.

These binders were tested against T9, NHERF3_1, Q5T2W1 (assay: holdup assay). Conditions: plain residues with an end cap or a label only (N-terminal biotin on a linker: ado-ado).
Set-up: key: below the threshold = too weak to quantify, mostly under pKd 3.1 to 4
Work on GDSSRKEYFI [GYPC, P04921] yielded a pKd of 3.69.

These binders were tested against T10, PCLO, Q9Y6V0 (assay: holdup assay). Conditions: plain residues with an end cap or a label only (N-terminal biotin on a linker: ado-ado).
Set-up: key: below the threshold = too weak to quantify, mostly under pKd 3.1 to 4
For GDSSRKEYFI [GYPC, P04921], the pKd was “below the threshold”.

These binders were tested against FRMPD2_3, Q68DX3 (assay: holdup assay). Conditions: plain residues with an end cap or a label only (N-terminal biotin on a linker: ado-ado).
Chain of FRMPD2_3, Q68DX3 (Q68DX3 1073-1166): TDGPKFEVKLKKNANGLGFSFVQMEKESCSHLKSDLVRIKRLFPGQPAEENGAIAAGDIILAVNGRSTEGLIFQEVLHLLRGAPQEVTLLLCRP
Set-up: key: below the threshold = too weak to quantify, mostly under pKd 3.1 to 4
Work on GDSSRKEYFI [GYPC, P04921] yielded a pKd of 3.76.

Each binder was assayed against DLG1_1, Q12959 (assay: holdup assay). Conditions: plain residues with an end cap or a label only (N-terminal biotin on a linker: ado-ado).
Set-up: key: below the threshold = too weak to quantify, mostly under pKd 3.1 to 4
GDSSRKEYFI [GYPC, P04921] was tested, and the pKd was 3.49.

What follows are binders tested against T11, LIN7A, O14910 (assay: holdup assay). Conditions: plain residues with an end cap or a label only (N-terminal biotin on a linker: ado-ado).
Set-up: key: below the threshold = too weak to quantify, mostly under pKd 3.1 to 4
For GDSSRKEYFI [GYPC, P04921], the pKd was “below the threshold”.

What follows are binders tested against GOPC, Q9HD26 (assay: holdup assay). Conditions: plain residues with an end cap or a label only (N-terminal biotin on a linker: ado-ado).
Set-up: key: below the threshold = too weak to quantify, mostly under pKd 3.1 to 4
In the case of GDSSRKEYFI [GYPC, P04921], the pKd is reported as “below the threshold”.

Each binder was assayed against IL16_3, Q14005 (assay: holdup assay). Conditions: plain residues with an end cap or a label only (N-terminal biotin on a linker: ado-ado).
Chain of IL16_3, Q14005 (Q14005 1107-1207): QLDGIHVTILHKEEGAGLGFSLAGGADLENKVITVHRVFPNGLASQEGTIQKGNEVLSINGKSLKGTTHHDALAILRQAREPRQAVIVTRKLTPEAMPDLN
Set-up: key: below the threshold = too weak to quantify, mostly under pKd 3.1 to 4
In the case of GDSSRKEYFI [GYPC, P04921], the pKd is reported as “below the threshold”.
